According to the DeepSol protein solubility set:

Assay: soluble on expression in E. coli; label from the status in PepcDB or PDB records

| Sequence | soluble on expression in E. coli |
| --- | --- |
| MAHTGENVLKGLPLKAIALAIALSNPVSAQTLEQAVSITLASNPELKSAFNQFKSREYDAEASSGAYLPKIDLDAGIGYEAINPAESSGNRNTDLTRKDATLTLTQLIWDGSATLNDMDRTAAEAEADRYQLLADASNMALEVAKIYLDATKASEILTLSENNLAIHKDIYRDIKKRADSGIGSTADVTQVEARLAKAHSNLVAAQNNLFDIYTQFRRLVGQEPVSLEFPRADQNAIPPTLENALNMAQENHPVIKVAQADVDAARFQYKQSKAPNYPTLSFEAAQSWRNDAGGIEGSSDELSAMLRLRYNLYNGGSDSDRTESAAYQLNRSKDLREKTFRTVEEGLRLSWSALDLTLQQKQFLADHVDSASKTVVSYRKQYQIGQRTLLDLLNTENELFEARKDYLDARYAEQYAKYRVMNASGNLLDALRVDIPQEWTAKVEY | not soluble |
| MSLPSEISDKATVPIEIGLTAAIVAIEANQPMILTASGDGGGSLAGLPYGPFDAITHRTLEIGLRAWVEEQTGLRLGYVEQLYTFGDRGRHARLGDTEVHVASIGYLALTRAADNAARAAGATFEPWYRFFPWEDWREQQPAIIARDIIPELTAWAAQAEEPGMARALARKDRVRLFFGVDGAPWDEERVLDRYELLYEAGLIEEARRDGRPAALSRSKAPTLGVAMRFDHRRILATAIARLRAKLKYRPVVFELLPPEFTLTELQHTVEAISGRHLHKQNFRRLVEAGALVEPTGEM | not soluble |
| MGHHHHHHAIAENLYFQSKLVEKTTTTEQDNGEDFCRTIIEVSEVNRNVFQAPGGEADPFRVVSGEELHLIPPLNFSMVDNGIFRSGFPDSANFSFLQTLGLRSIIYLCPEPYPESNLQFLKSNGIRLFQFGIEGNKEPFVNIPDHKIRMALKVLLDEKNHPVLIHCKRGKHRTGCLVGCLRKLQKWCLTSIFDEYQRFAAAKARVSDQRFMEIFDVSSFSHIPMSFSCSIR | soluble |
| MLCVRRRCISAPMTDTTILPRPEVSGDFLVAALYHFARLPRFESLREQLFELCQKNGVKGTLLLAAEGINGTIAGPDAGVQAVLSFLRAQPEFAALEHKESRASHMPFVRLKVKLKKEIVTMGVPDIDPNRIVGTYVDPRDWNALISDPDTIVIDTRNDYETAIGVFKGAVDPQTKTFREFPDWVKNNPGLHNKPKIAMYCTGGIRCEKATAFMKEQGFDEVYHLKGGILKYLEEVPEEESLWEGACFVFDERVSVVHGLAEGDHQLCHACRNPITPDVRLSPKFEEGVSCPSCYDERSEDDRQRFRDRQQQIELAKTRGERHLGRLEHHHHHH | soluble |
| MSATASVATRHDWSLAEVRALFEQPFNDLLFQAQTVHRAHFDPNRVQVSTLLSIKTGACPEDCKYCPQSGHYNTGLDKEKLMEVQKVLEAAAEAKAIGSTRFCMGAAWKHPSAKDMPYVLEMVKGVKKLGLETCMTLGRLTQEQTQALADAGLDYYNHNLDTSPEFYGNIITTRTYSERLQTLAYVREAGMKICSGGILGMGESVDDRAGLLIQLANLPEHPESVPINMLVKVKGTPLAEEKDVDPFDFIRTLAVARIMMPKSHVRLSAGREQMNEQMQALAFMAGANSIFYGEKLLTTKNPQAEKDMQLFARLGIKPEEREEHADEVHQAAIEQALVEQRESKLFYNAASA | not soluble |
| MVVSIIPQFPDIKVSLALFEQVKNAKEIRSKMSELSTSFAFIDPRLVCSGEQMYSAIYKTLIEVKYNKMRTRNLNSECVLCLSPTSNISDAFLKFGIKDDSSQLICLKFHTNTDDVDKEQLRTIMTSIVKGQEIEFNDDNLSRFYDEALIRKVCFNNKFEVKTSTASPETHCTNFTFVFLLFCFYLLDL | not soluble |
| MGSDKIHHHHHHMNTAPFKLEADFASALPTMAAPWQGEEAPNPELVILNDDLAYSLGLDPTWLRTPEGVQFLLGLNPEPLTKAVAQAYSGHQFGQFVASLGDGRALLLGEARSADGVLHDIHLKGSGRTQFSRGADGRAVLGPVLREYIISEAMHALGVPTTRSLAVISTGRKIQRGSVAPGAVLVRVATSLIRVGSFQYSNISGGIELSQHLANYTITRHFPSLVAELSAPTPATYVSLFKAILQRQADTVGKWTRLGFVHGALNTDNTLISGETVDYGPCAFMERYRGDAKFSSIDTYGRYKFENQPMILGWNMARLVETLLPLLGATPDEGMTAAQEALVEFDDLCEQAIRKEFATALGLDESDTGTVEQFRELLYLHNPDITTLLRALTDNTAPPSGFEAFVHDWKTQDPDIEAMRAVNPLFIPRNHLVEAALADAVEGNLEKFHELLAAVTNPFDPTAGPDELRLPSEEGFEEDYMTFCGT | not soluble |
| AHHHHHHGSIIELDEFTRVEGNGKAEIVIENGEVKDARVKIVEGPRFFEILTLGRDYWDVPDLEARICAICYIAHSVASVRAIEKALGIDVPESVEKLRELALWGEIIESHALHLYLLALPDVFGYPDAISMIPRHGELVKEGLTIKAFGNAIRELIGGREIHGINIKPGGFGRYPSEEELEKIAEHSKSLIKFARRIVGIFASQEAGGAVGEVLMATSDYLWGDELIINGERVQYYEVDEVPVGYSFAKHSYYKGNPVFVGALPRLLLKGESIEGEAARMLEEYRDKLESKYVIYNNLAQAIELLYALERVPQLVEEILSEGIERGNGEISQESGEGVGYVEAPRGVLVHHYRIENGKVVWSNTITPTAFNQRLMELSLLEEAKRLYGSESEENMKKRLEVIVRAFDPCISCSVHFVKL | soluble |
| MDAFSGIAGPLGRASELHRYEGNQTVVFCAGGVGLPPVYPIMREHLRLGNHVTLISGFRAKEFLFWTGDDERVGKLKKEFGDQLSLIYTTNDGSYGVKGFVTGPLEEMMKANQEGKGRSIAEVIAIGPPLMMRAVSDLTKPYGVKTVASLNSLEHHHHHH | soluble |
| MSNILIINGAKKFAHSNGQLNDTLTEVADGTLRDLGHDVRIVRADSDYNVKAEVQNFLWADVVIWQMPGWWMGAPWTVKKYIDDVFTEGHGTLYASDGRTRKDPSKKYGSGSLVQDKKYMLSLTWNAPMEAFTEKDQFFHGVGVDGVYLPFHKANQFLGMEPLPTFIANDVIKMPDVPRYTEEYRKHLVEIFG | not soluble |
| MGSDKIHHHHHHMRHIAHYCVAHPAGSMVVPGTRKKRELLPSAAPWRLSGVFVSLDEIRKDWTTLGAAAPLWAVCVDPAKRHGGWDDDEFLASGRAEIDAAMARLAELGIAHGRERALDFGCGAGRLSNALAAYFDRVVGVDISAPMLAEARRLDRSGGRIDFLLNDAPDLKIFPDASFDLVYTDLVLQHLPPPLARGYLAEFARVLRPGGALVAGMPATERRTVKGLVFRYAPHRVIRFIQRVLLGYPAPMRMHTMPPEQMRELLASHGVRVVSAEEYAGDDHGTHWVHMRYYARKDPGAAL | not soluble |
| VLDSFEILKALKSLDLLKNAPAWWWPNALKFEALLGAVLTQNTKFEAVLKSLENLKNAFILENDDEINLKKIAYIEFSKLAECVRPSGFYNQKAKRLIDLSGNILKDFQSFENFKQEVTREWLLDQKGIGKESADAILCYACAKEVMVVDKYSYLFLKKLGIEIEDYDELQHFFEKGVQENLNSALALYENTISLAQLYARFHGKIVEFSKQKLELKL | soluble |
| MALIGRQTTIQMIDLEPELPTQKDYQSDILRELTQIRNENLEYNRLEVYVLELEQIMRIRMIVDLLDLGGRLNSETLLQMCYRLVNQETDLENLRNFRDSQFAQEEQRRDRLREIGQRIFNRFEQQQEEAAGNREGSEAGERPSKENIEFRIWRFLSVLQHQDGLERLDELEREIAVRREMNAADQFQEGQDFFARINPDIVAEGIPHHNNRDNIPIERQYRTEFIQLANDLQSPPDDVRLDVFRRLIDLGVQFQESRLEQDRQRIQEEPQRQREGEIMDQLNDSVKGDMRRLNPMAPGNASGNIQQEGAGIETDVDVDDELEDEYSGSDSSQDVEEVPEESSERYVADTGSATNQPSSSTSEPNAGNEEVEDPSQRTRKRGNGSELSDAKRTN | soluble |
| MGSRSSHAAVIPDGDSIRRETGFSQASLLRLHHRFRALDRNKKGYLSRMDLQQIGALAVNPLGDRIIESFFPDGSQRVDFPGFVRVLAHFRPVEDEDTETQDPKKPEPLNSRRNKLHYAFQLYDLDRDGKISRHEMLQVLRLMVGVQVTEEQLENIADRTVQEADEDGDGAVSFVEFTKSLEKMDVEQKMSIRILKHHHHHH | soluble |
| MSDNAQLTGLCDRFRGFYPVVIDVETAGFNAKTDALLEIAAITLKMDEQGWLMPDTTLHFHVEPFVGANLQPEALAFNGIDPNDPDRGAVSEYEALHEIFKVVRKGIKASGCNRAIMVAHNANFDHSFMMAAAERASLKRNPFHPFATFDTAALAGLALGQTVLSKACQTAGMDFDSTQAHSALYDTERTAVLFCEIVNRWKRLGGWPLPAAEEV | not soluble |
